Reference: publication PMC3897609, “Heparanase Interacts with Resistin and Augments Its Activity” (PLoS ONE, 2014)

Molecular target: T1, cMyc-tagged 65-kDa latent heparanase (human, UniProt Q9Y251 36-543)
T1 construct: heparanase, human, 65-kDa latent (unprocessed) form; also called cMyc-latent heparanase; latent cMyc-heparanase; source: medium conditioned by heparanase infected CHO cells, purified (heparin column)
T1 sequence (looked up): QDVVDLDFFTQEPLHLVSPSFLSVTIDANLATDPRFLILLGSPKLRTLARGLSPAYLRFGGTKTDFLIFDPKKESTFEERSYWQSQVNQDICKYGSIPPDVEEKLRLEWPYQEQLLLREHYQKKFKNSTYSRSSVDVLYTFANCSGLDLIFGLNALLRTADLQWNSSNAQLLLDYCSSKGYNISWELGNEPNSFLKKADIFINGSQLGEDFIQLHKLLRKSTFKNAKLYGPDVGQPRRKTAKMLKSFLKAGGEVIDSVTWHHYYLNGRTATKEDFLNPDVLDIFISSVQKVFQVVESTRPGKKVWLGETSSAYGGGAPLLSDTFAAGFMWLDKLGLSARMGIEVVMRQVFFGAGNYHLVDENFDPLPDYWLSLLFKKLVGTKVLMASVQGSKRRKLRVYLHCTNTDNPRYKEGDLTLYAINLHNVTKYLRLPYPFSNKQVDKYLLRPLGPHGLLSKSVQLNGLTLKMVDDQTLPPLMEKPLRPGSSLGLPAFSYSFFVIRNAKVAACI
Experiment: ELISA; competition: cMyc latent heparanase as coating layer; analyte resistin (200 ng/ml) preincubated 30 min at RT with the competitor (active heparanase, or leptin as control); bound resistin detected by anti resistin antibodies
Conditions: both partners purified

binding result: binds
B1: human recombinant resistin expressed in HEK 293 (natural protein, UniProt Q9HD89 19-108, looked up)
chain: KTLCSMEEAINERIQEVAGSLIFRAISSIGLECQSVTSRGDLATCPRGFAVTGCTCGSACGSWDVRAETTCHCQCAGMDWTGARCCRVQP
notes: resistin, human, recombinant; Runs as a 12 kDa band under reducing conditions; also called RETN; source: HEK 293, pure preparation, gift from Serono
